These results are taken from patent publication US20140072613A1, “Compositions and Methods for Treating Cutaneous Scarring” (priority 2012, published 2014).

Some results are limits rather than exact numbers.

In test [1] the target is Abl(H8396P)(h) (human), P00519. Briefly: cell-based or functional assay.
Test [2] concerns the target CK1δ(h) (human), P48730. As to the kind of experiment: cell-based or functional assay.
For test [3], the target named is CaMKIIδ(h) (human), Q13557. As to the kind of experiment: cell-based or functional assay.
Test [4] addresses CaMKIδ(h) (human), Q8IU85. As to the kind of experiment: cell-based or functional assay.
In test [5] the target is PKCβI(h) (human), P05771. As to the kind of experiment: cell-based or functional assay.
Test [6] concerns the target PKG1α(h) (human), Q13976. Briefly: cell-based or functional assay.
The target of test [7] is CaMKI(h) (human), Q14012. As to the kind of experiment: cell-based or functional assay.
Test [8] addresses T1, DMPK(h) (human), Q09013.
T1 chain: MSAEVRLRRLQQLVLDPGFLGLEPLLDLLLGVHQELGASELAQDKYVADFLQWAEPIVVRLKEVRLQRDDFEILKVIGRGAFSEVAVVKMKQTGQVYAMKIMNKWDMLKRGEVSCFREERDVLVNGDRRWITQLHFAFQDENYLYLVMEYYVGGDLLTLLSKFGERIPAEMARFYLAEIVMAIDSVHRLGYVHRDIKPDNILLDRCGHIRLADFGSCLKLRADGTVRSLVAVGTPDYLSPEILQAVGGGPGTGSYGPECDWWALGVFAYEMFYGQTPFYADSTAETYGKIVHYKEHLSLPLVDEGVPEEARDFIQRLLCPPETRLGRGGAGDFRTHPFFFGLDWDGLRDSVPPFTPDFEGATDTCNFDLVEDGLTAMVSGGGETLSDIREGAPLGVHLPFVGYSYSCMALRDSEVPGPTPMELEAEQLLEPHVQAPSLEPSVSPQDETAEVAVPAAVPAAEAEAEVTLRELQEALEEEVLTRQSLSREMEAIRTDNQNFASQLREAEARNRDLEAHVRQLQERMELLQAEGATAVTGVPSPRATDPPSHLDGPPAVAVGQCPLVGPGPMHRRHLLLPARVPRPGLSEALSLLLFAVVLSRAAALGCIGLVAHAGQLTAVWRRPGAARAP
As to the kind of experiment: cell-based or functional assay.

For test [9], the target named is T2, DRAK1(h) (human), Q9UEE5.
T2 chain: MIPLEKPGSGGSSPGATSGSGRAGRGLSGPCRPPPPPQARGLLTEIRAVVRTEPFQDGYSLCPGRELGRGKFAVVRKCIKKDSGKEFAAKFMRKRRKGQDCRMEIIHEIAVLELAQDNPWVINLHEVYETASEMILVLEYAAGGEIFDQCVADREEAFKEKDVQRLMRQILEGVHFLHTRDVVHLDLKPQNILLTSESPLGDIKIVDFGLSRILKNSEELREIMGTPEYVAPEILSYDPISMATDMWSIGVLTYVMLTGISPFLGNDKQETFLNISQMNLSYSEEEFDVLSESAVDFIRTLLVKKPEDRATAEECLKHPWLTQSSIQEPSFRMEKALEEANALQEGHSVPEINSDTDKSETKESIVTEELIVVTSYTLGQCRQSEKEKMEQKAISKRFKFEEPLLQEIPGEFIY
As to the kind of experiment: cell-based or functional assay.

The target in test [10] is EGFR(L861Q)(h) (human), P00533. Briefly: cell-based or functional assay.
Test [11] has as its target T3, EphA2(h) (human), P29317.
T3 chain: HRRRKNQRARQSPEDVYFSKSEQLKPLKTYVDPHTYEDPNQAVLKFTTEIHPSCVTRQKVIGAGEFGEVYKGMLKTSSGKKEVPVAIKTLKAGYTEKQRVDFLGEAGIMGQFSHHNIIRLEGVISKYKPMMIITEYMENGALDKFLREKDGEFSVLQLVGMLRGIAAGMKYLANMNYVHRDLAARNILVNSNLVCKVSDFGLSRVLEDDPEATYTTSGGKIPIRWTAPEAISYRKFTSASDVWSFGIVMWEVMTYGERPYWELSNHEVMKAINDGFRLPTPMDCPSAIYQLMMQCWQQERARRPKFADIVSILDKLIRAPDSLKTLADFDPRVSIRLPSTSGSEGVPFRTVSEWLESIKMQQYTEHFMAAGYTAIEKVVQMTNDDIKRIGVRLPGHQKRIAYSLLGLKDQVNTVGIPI
Briefly: cell-based or functional assay.

Test [12] addresses T4, FGFR2(h) (human), P21802.
T4 chain: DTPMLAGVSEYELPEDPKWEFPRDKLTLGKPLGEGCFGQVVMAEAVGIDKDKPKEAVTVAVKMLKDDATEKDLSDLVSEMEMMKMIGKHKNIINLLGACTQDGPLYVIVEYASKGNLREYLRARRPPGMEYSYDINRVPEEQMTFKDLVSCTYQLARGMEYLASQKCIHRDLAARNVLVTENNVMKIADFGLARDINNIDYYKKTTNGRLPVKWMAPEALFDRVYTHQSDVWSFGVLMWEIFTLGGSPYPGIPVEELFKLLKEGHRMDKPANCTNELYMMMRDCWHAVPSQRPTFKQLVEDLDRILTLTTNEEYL
Briefly: cell-based or functional assay.

The target of test [13] is Fes(h) (human), P07332. As to the kind of experiment: cell-based or functional assay.
Test [14] has as its target Fgr(h) (human), P09769. As to the kind of experiment: cell-based or functional assay.
The target of test [15] is LOK(h) (human), O94804. As to the kind of experiment: cell-based or functional assay.
In test [16] the target is MAPKAP-K2(h) (human), P49137. Briefly: cell-based or functional assay.
Test [17] has as its target MAPKAP-K3(h) (human), Q16644. As to the kind of experiment: cell-based or functional assay.
Test [18] deals with MSK1(h) (human), O75582. As to the kind of experiment: cell-based or functional assay.
The target in test [19] is Pim-1(h) (human), P11309. As to the kind of experiment: cell-based or functional assay.
Test [20] concerns the target TrkB(h) (human), Q16620. As to the kind of experiment: cell-based or functional assay.
The target in test [21] is Yes(h) (human), P07947. As to the kind of experiment: cell-based or functional assay.
For test [22], the target named is Angiotensin 2 (off-target receptor). Briefly: Cerep binding assay, competition with a radiolabelled ligand.
For test [23], the target named is Bombesin (off-target receptor). The test is described as above.
The target in test [24] is Melanocortin 4 (off-target receptor) (Homo sapiens (Human)), P32245. Described as above.
Test [25] deals with T5, Neurokinin 2 (off-target receptor) (Homo sapiens (Human)), P21452.
T5 chain: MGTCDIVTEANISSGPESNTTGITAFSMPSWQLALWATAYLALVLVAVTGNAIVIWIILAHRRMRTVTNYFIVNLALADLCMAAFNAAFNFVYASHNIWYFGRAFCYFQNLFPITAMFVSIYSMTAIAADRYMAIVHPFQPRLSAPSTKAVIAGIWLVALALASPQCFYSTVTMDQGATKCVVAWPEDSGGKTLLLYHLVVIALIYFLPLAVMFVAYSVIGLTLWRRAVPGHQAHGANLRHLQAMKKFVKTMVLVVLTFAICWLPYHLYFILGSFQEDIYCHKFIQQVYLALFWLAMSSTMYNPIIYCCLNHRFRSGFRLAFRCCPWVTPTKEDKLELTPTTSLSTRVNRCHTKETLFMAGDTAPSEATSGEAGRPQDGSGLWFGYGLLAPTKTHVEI
Described as above.

In test [26] the target is Neuropeptide Y (off-target receptor). The test is described as above.
Test [27] deals with Serotonin 2A (off-target receptor) (Homo sapiens (Human)), P28223. Described as above.
In test [28] the target is Small conductance calcium activated K+ channel. The description is as above.
The target of test [29] is Vasoactive intestinal peptide (off-target receptor). Described as above.

Sequence of CaMKIδ(h) (human), Q8IU85 (Q8IU85 whole entry, stated change not applied): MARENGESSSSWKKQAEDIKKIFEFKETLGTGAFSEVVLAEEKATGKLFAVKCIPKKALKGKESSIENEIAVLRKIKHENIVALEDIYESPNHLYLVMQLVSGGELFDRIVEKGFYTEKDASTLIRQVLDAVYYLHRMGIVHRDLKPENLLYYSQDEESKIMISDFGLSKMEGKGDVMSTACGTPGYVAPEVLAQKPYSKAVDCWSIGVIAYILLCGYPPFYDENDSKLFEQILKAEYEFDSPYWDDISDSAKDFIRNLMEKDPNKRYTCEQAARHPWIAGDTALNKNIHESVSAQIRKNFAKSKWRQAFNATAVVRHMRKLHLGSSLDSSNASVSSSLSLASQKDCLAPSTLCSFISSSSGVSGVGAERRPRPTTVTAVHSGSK
Sequence of PKCβI(h) (human), P05771 (P05771 whole entry): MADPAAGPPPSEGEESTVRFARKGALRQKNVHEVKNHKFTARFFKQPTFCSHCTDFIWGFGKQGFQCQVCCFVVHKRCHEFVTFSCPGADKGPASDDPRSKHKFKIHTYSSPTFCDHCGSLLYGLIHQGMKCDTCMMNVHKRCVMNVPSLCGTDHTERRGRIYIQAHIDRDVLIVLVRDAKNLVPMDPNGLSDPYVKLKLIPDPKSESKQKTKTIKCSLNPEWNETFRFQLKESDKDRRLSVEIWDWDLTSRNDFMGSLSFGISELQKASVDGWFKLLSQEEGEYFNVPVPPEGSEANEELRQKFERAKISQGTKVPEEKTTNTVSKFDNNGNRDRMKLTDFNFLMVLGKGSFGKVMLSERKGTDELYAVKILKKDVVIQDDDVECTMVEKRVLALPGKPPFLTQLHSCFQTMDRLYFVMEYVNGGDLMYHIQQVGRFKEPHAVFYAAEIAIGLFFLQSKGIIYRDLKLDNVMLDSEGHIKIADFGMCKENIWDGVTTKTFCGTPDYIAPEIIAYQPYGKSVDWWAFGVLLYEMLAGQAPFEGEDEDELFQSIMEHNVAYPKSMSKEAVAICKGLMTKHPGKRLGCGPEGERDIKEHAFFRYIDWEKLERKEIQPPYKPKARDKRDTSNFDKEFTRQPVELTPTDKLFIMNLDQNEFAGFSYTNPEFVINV
Sequence of CaMKIIδ(h) (human), Q13557 (Q13557 whole entry, stated change not applied): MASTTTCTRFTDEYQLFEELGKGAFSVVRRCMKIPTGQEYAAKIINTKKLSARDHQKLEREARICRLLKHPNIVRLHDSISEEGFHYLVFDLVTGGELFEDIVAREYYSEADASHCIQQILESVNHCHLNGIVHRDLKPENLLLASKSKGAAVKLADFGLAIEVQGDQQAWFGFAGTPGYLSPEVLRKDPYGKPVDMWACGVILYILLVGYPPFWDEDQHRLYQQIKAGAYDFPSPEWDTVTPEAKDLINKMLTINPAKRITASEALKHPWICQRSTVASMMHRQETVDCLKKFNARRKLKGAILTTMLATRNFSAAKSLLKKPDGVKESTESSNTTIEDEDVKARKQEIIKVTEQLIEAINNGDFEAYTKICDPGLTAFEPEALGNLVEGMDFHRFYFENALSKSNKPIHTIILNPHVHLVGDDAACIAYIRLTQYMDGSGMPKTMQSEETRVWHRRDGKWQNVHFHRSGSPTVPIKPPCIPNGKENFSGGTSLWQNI
Sequence of Abl(H8396P)(h) (human), P00519 (P00519 27-1130, stated change not applied): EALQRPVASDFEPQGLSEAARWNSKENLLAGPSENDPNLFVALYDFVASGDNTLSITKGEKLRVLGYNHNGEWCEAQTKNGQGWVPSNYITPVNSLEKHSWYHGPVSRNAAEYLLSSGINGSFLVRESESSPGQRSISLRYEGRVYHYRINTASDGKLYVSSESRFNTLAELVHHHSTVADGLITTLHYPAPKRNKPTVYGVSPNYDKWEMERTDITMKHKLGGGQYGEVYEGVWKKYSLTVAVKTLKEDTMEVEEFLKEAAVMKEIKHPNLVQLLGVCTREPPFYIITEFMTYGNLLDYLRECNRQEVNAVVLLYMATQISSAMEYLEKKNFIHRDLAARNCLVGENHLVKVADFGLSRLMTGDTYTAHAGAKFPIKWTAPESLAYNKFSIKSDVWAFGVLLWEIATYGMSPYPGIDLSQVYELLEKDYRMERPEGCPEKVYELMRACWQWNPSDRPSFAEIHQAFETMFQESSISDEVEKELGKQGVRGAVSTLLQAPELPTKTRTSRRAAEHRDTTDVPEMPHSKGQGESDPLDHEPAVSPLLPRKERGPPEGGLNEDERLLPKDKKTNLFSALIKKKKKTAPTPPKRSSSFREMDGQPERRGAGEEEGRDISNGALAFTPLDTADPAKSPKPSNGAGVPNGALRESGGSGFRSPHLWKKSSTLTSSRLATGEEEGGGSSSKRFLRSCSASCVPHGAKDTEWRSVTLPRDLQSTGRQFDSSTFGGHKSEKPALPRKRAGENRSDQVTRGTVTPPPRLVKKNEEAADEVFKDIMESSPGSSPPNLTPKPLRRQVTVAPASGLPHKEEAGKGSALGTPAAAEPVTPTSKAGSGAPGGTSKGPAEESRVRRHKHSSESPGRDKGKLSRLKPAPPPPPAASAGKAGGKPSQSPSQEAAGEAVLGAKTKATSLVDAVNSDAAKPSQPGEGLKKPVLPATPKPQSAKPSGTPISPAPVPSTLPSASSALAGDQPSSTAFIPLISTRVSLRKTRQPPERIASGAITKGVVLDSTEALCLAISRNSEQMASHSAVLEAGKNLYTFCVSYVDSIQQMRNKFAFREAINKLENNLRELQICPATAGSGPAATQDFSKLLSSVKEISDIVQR
Sequence of PKG1α(h) (human), Q13976 (Q13976 whole entry): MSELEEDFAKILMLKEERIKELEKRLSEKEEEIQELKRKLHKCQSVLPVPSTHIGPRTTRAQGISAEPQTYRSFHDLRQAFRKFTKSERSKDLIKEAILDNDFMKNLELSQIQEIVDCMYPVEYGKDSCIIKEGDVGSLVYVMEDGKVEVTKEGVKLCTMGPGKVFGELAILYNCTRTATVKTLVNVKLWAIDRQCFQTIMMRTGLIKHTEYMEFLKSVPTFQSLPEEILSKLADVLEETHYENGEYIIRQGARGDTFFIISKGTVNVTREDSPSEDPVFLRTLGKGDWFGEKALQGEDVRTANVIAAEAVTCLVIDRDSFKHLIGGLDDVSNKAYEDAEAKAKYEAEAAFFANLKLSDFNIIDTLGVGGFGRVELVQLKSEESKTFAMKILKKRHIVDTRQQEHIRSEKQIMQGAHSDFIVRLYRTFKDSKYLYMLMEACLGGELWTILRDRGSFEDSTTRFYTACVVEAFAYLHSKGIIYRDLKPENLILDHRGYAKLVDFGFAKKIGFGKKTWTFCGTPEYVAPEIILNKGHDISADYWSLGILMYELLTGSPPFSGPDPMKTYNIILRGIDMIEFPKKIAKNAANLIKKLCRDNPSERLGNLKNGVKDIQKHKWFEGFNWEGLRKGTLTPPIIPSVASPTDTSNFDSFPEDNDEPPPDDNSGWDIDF
Sequence of CK1δ(h) (human), P48730 (P48730 1-294, stated change not applied): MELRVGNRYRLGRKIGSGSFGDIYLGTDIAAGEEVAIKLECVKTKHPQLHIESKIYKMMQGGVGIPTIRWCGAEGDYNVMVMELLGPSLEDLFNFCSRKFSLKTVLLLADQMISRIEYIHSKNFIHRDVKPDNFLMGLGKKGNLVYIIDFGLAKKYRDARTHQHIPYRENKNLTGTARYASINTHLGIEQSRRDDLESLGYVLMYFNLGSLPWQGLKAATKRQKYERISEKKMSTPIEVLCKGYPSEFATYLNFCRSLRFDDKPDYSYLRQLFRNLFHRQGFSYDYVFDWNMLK
Sequence of Yes(h) (human), P07947 (P07947 whole entry): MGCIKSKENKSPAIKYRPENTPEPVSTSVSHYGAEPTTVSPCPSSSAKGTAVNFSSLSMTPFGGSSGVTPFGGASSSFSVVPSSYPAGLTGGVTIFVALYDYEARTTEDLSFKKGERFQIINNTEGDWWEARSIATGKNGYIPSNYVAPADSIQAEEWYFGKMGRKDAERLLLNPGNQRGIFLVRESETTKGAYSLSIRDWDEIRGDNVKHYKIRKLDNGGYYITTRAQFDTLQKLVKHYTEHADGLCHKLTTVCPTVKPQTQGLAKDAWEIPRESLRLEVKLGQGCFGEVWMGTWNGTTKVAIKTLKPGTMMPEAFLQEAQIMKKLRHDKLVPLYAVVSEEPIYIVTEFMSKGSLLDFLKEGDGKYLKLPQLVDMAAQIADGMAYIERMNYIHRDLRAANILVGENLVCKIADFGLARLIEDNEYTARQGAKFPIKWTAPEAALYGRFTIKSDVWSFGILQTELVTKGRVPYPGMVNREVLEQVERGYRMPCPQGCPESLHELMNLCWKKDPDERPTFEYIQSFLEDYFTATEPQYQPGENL
Sequence of MSK1(h) (human), O75582 (O75582 whole entry): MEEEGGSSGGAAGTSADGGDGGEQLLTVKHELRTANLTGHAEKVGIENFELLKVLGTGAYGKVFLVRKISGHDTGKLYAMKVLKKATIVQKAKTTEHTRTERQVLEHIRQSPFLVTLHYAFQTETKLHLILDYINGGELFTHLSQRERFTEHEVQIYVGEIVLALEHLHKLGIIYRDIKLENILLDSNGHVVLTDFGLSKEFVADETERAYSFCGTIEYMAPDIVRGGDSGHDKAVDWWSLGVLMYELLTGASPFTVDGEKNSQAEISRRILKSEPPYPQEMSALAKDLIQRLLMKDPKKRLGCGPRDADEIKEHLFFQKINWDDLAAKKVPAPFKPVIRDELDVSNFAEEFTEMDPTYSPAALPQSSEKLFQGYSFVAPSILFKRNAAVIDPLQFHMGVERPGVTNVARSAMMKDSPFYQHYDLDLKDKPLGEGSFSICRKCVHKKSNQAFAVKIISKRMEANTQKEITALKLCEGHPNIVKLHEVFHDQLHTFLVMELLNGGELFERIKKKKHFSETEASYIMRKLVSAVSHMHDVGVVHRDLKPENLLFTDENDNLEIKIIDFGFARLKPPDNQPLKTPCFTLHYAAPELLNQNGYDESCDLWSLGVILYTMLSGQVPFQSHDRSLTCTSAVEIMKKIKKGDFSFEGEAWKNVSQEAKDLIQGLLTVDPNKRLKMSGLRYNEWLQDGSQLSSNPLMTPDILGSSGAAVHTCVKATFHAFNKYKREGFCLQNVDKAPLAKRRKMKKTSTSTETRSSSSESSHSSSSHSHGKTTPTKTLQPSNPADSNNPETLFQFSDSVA

FAKLAARLYRKALARQLGVAA [MMI-0300]: the % activity, 100 µM in [1] came out at 101%; in test [2], 92%; in test [3], 1%; in test [4], 10%; in test [5] it was 78%; in [6], 64%.
On to KAFAKLAARLYRKALARQLGVAA [MMI-0400], for which the % activity, 100 µM worked out at 105% in [1]; 93% in test [2]; 2% in test [3]; 17% in test [4]; 78% in test [5]; 58% in [6].
Broadly, the % inhibition is the change of the read-out against control, counted positive when it falls. For YARAAARQARAKALARQLGVAA (modifications not checked) [MMI-0100], the IC50 (kinase activity) in [7] came to 11.7 µM; in test [4], 45.8 µM; in test [8] it was 34.1 µM; in test [9], 78.3 µM; in test [10], 128 µM; in test [11], 181 µM. The IC50 (kinase activity) in [12] is 172 µM; in test [13], 174 µM; in [14], 141 µM; in [15], 47.6 µM; in test [16] it was 12.1 µM; in test [17], 15.8 µM. Besides, the IC50 (kinase activity) in test [18] amounted to 102 µM; in test [19], 71.7 µM; in test [20], 4.6 µM; in test [21] it was 114 µM. The % inhibition in [22], in test [23], in test [24], in test [25], in test [26] and in test [27] was under 30% each time. The % inhibition in test [28] and in [29] was under 30% in each case.
